Assay results as given in patent US20230381130A1 (ATRECA, published 2023).
Changes are numbered by the printed parent chain.

T1: human FcγRIIa-H (the high-affinity H131 variant) (human, UniProt P12318 34-317)
T1 sequence (looked up): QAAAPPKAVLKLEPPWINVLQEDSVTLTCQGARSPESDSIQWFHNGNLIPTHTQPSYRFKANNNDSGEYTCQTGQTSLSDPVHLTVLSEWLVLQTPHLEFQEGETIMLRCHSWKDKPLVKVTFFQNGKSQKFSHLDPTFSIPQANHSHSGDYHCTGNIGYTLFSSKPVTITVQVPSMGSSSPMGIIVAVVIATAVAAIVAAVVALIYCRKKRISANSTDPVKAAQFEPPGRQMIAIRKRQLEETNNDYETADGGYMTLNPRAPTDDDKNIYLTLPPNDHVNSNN

B1: AIP-169752 (antibody, V domains shown)
VH: EVQLVESGGALVKPGGSLRLSCAASGFTFSKAWMSWVRQAPGKGLEWVGRIKSVTDGETTDYAAPVKGRFTISRDDSKSTLYLQMNSLKTEDTAVYYCTSSFCCRGGGSCPSHDTSYCGGQYKSYYYMDVWGKGTTVTVSS
VL: QSVLTQPPSASGTPGQRVTISCSGSSSNIGSSSVSWYQQLPGTAPKLLIYKNNQRPSGVPDRFSGSKSGTSASLAISGLRSEDEADYYCSTWDDSLSVRVFGGGTKLTVL
B2: AIP-185680 (antibody, V domains shown)
VH: EVQLVESGGALVKPGGSLRLSCAASGFTFSKAWMSWVRQAPGKGLEWVGRIKSVTDGETTDYAAPVKGRFTISRDDSKSTLYLQMNSLKTEDTAVYYCTSSFCCRGGGGSCPSHDTSYCGGQYKSYYYMDVWGKGTTVTVSS
VL: B1 VL
B3: AIP-145328 (antibody, V domains shown)
VH: EVQLVESGGALVKPGGSLRLSCAASGFTFSKAWMSWVRQAPGKGLEWVGRIKSVTDGETTDYAAPVKGRFTISRDDSKSTLYLQMNSLKTEDTAVYYCTSSFCCRGGSGGSCPSHDTSYCGGQYKSYYYMDVWGKGTTVTVSS
VL: B1 VL
B4: AIP-182606 (antibody, V domains shown)
VH: EVQLVESGGALVKPGGSLRLSCAASGFTFSKAWMSWVRQAPGKGLEWVGRIKSVTDGETTDYAAPVKGRFTISRDDSKSTLYLQMNSLKTEDTAVYYCTSSFSCRGGSCPSHDTSYGGQYKSYYYMDVWGKGTTVTVSS
VL: B1 VL
B5: AIP-107388 (antibody, V domains shown)
VH: EVQLVESGGALVKPGGSLRLSCAASGFTFSKAWMSWVRQAPGKGLEWVGRIKSVTDGETTDYAAPVKGRFTISRDDSKSTLYLQMNSLKTEDTAVYYCTSSFCCRGGSCPSHDTSYCGGGQYKSYYYMDVWGKGTTVTVSS
VL: B1 VL
B6: AIP-191692 (antibody, V domains shown)
VH: EVQLVESGGALVKPGGSLRLSCAASGFTFSKAWMSWVRQAPGKGLEWVGRIKSVTDGETTDYAAPVKGRFTISRDDSKSTLYLQMNSLKTEDTAVYYCTSSFCCRGGSCPSHDTSYCGGGSGYKSYYYMDVWGKGTTVTVSS
VL: B1 VL
B7: AIP-163723 (antibody, V domains shown)
VH: B4 VH with S103C, G117C, Q119G, Y120Q
VL: B1 VL
B8: AIP-131762 (antibody, V domains shown)
VH: EVQLVESGGALVKPGGSLRLSCAASGFTFSKAWMSWVRQAPGKGLEWVGRIKSVTDGETTDYAAPVKGRFTISRDDSKSTLYLQMNSLKTEDTAVYYCTSSFCGGPSHDTSYCGGQYKSYYYMDVWGKGTTVTVSS
VL: B1 VL
B9: AIP-167295 (antibody, V domains shown)
VH: B4 VH with S103C, G117C, Q119G, Y120Q, K121Y
VL: B1 VL
B10: AIP-125646 (antibody, V domains shown)
VH: B4 VH with S103C, G117C
VL: B1 VL
B11: AIP-114111 (antibody, V domains shown)
VH: B5 VH with G120Q, Q121Y, Y122K, K123S
VL: B1 VL
B12: AIP-194564 (antibody, V domains shown)
VH: B1 VH with G106S
VL: B1 VL

Each binder was assayed against T1, human FcγRIIa-H (the high-affinity H131 …) (assay: cell-based or functional assay).
B1 was tested, and the “Avg ΔActivity Rank” value was 2. In the case of B2, the “Avg ΔActivity Rank” value is reported as 1. In the case of B3, the “Avg ΔActivity Rank” value is reported as 2. In the case of B4, the “Avg ΔActivity Rank” value is reported as 2. For B5, the “Avg ΔActivity Rank” value was 2. In the case of B6, the “Avg ΔActivity Rank” value is reported as 2. B7 was tested, and the “Avg ΔActivity Rank” value was 2. In the case of B8, the “Avg ΔActivity Rank” value is reported as 1. For B9, the “Avg ΔActivity Rank” value was 2. In the case of B10, the “Avg ΔActivity Rank” value is reported as 2.5, the “EC50” value is reported as 446 nM and the “Fold ΔActivity” value is reported as 0.75. B11 was tested, and the “Avg ΔActivity Rank” value was 2, the “EC50” value was 258 nM and the “Fold ΔActivity” value was 0.55. In the case of B12, the “Avg ΔActivity Rank” value is reported as 2, the “EC50” value is reported as 472 nM and the “Fold ΔActivity” value is reported as 0.58.
